Values of other authors, collected in publication PMC11528372.

Columns and labels:
Settings in all cases: cited from earlier work
Asp85 = Asp85 (UniProt position 98, WARYADWLFTT)
Asp74 = Asp74 (UniProt position 74, WGRYIDWVVTT)
Asp121 = Asp121 (UniProt position 121, AYRYVDWLLTV)
Asp97 = Asp97 (UniProt position 97, VFRYIDWLLTV)

## Bacteriorhodopsin (BR) (Halobacterium salinarum)
Asp85
  pKa: ~2.6

## Cyanorhodopsin N2098R (Calothrix sp. NIES-2098 rhodopsin) (Calothrix sp. NIES-2098)
Asp74
  pKa: <2.0

## Gloeobacter rhodopsin (GR) (Gloeobacter violaceus PCC 7421)
Asp121
  pKa: ~5.9

## Green-absorbing proteorhodopsin (GPR) (uncultured marine gamma proteobacterium EBAC31A08)
Asp97
  pKa: ~7.9
